In test [1] the target is T1, tetanus neurotoxin (TeNT), authentic tetanus holotoxin (Clostridium tetani, UniProt P04958 2-1315). In words: competition ELISA on TeNT, binder biotinylated; competitor mAb 14F5.
Target sequence in this assay (P04958 2-457 limits assumed, chain 1 of 2): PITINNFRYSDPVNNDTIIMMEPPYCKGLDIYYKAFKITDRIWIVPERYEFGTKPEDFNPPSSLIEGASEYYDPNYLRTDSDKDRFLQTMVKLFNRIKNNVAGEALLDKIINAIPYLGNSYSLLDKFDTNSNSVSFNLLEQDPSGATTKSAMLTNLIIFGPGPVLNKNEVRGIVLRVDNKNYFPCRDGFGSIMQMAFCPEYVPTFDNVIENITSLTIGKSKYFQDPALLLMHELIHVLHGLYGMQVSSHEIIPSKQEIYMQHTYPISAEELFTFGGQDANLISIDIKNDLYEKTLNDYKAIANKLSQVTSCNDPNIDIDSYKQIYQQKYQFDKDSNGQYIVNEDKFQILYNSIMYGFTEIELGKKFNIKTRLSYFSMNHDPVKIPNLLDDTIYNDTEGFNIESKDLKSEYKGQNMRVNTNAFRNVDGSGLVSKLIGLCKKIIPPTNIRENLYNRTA
Target sequence in this assay (P04958 458-1315 limits assumed, chain 2 of 2): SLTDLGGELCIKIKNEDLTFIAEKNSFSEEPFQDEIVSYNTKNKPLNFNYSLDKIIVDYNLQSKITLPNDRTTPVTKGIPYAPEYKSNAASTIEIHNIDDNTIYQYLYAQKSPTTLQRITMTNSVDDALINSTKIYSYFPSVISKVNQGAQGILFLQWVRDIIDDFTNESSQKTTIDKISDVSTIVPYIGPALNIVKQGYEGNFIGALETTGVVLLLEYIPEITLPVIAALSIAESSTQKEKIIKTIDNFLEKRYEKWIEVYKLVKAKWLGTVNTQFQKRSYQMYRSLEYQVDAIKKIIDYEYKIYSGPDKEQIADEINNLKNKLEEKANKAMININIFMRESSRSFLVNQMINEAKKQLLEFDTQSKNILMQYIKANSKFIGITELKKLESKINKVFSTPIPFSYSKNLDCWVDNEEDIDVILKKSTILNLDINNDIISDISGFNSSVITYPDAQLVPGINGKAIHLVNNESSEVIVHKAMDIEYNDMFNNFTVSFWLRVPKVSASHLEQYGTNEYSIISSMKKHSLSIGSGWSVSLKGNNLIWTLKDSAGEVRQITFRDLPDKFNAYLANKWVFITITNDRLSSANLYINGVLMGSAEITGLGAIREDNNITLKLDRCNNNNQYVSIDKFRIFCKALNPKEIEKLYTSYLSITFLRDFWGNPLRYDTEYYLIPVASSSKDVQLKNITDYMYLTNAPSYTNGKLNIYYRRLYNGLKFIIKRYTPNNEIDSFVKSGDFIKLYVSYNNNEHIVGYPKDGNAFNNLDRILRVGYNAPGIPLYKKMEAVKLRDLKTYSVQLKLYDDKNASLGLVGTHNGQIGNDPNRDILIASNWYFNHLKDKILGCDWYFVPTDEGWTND
The target in test [2] is T1, tetanus neurotoxin (TeNT), authentic …. Description: ELISA, directly coated TeNT, unlabelled binder.
Target sequence in this assay (P04958 2-457 limits assumed, chain 1 of 2): as the sequence (P04958 2-457 limits assumed, chain 1 of 2) above
Target sequence in this assay (P04958 458-1315 limits assumed, chain 2 of 2): as the sequence (P04958 458-1315 limits assumed, chain 2 of 2) above
The target is the same in test [3]. Description: competition ELISA on TeNT, binder biotinylated; competitor mAb 6F57.
Target sequence in this assay (P04958 2-457 limits assumed, chain 1 of 2): as the sequence (P04958 2-457 limits assumed, chain 1 of 2) above
Target sequence in this assay (P04958 458-1315 limits assumed, chain 2 of 2): as the sequence (P04958 458-1315 limits assumed, chain 2 of 2) above
Test [4] has the same target. Description: competition ELISA on TeNT, binder biotinylated; competitor SVT02L.
Target sequence in this assay (P04958 2-457 limits assumed, chain 1 of 2): as the sequence (P04958 2-457 limits assumed, chain 1 of 2) above
Target sequence in this assay (P04958 458-1315 limits assumed, chain 2 of 2): as the sequence (P04958 458-1315 limits assumed, chain 2 of 2) above
Test [5] has the same target. In words: competition ELISA on TeNT, binder biotinylated; competitor mAb 11n185.
Target sequence in this assay (P04958 2-457 limits assumed, chain 1 of 2): as the sequence (P04958 2-457 limits assumed, chain 1 of 2) above
Target sequence in this assay (P04958 458-1315 limits assumed, chain 2 of 2): as the sequence (P04958 458-1315 limits assumed, chain 2 of 2) above
For test [6] the target is unchanged. Description: competition ELISA on TeNT, binder biotinylated; competitor SVT03L.
Target sequence in this assay (P04958 2-457 limits assumed, chain 1 of 2): as the sequence (P04958 2-457 limits assumed, chain 1 of 2) above
Target sequence in this assay (P04958 458-1315 limits assumed, chain 2 of 2): as the sequence (P04958 458-1315 limits assumed, chain 2 of 2) above
For test [7] the target is unchanged. In words: competition ELISA on TeNT, binder biotinylated; competitor SVT08L.
Test [8] has the same target. In words: ELISA, TeNT captured with cAb-TT2, unlabelled binder.
For test [9] the target is unchanged. In words: competition ELISA on TeNT, binder biotinylated; competitor mAb 6E7.
For test [10] the target is unchanged. Description: competition ELISA on TeNT, binder biotinylated; competitor SVT16L.
Test [11] shares this target. In words: competition ELISA on TeNT, binder biotinylated; competitor SVT15L-3FW4M.
For test [12] the target is unchanged. In words: competition ELISA on TeNT, binder biotinylated; competitor SVT06L.
Test [13] has the same target. In words: GT1b-TeNT inhibition ELISA, unlabelled binder.
Test [14] has the same target. Description: competition ELISA on TeNT, binder biotinylated; competitor SVT22L.
The target is the same in test [15]. In words: competition ELISA on TeNT, binder biotinylated; competitor SVT15L.
Test [16] shares this target. Description: ELISA, directly coated TeNT, biotinylated binder.
Test [17] has the same target. In words: competition ELISA on TeNT, binder biotinylated; competitor SVT34L.
For test [18] the target is unchanged. In words: ELISA, TeNT captured with cAb-TT2, biotinylated binder.
Test [19] deals with T2, recombinant tetanus toxin fragment C (rTTC) (Clostridium tetani, UniProt P04958 865-1315).
T2 sequence: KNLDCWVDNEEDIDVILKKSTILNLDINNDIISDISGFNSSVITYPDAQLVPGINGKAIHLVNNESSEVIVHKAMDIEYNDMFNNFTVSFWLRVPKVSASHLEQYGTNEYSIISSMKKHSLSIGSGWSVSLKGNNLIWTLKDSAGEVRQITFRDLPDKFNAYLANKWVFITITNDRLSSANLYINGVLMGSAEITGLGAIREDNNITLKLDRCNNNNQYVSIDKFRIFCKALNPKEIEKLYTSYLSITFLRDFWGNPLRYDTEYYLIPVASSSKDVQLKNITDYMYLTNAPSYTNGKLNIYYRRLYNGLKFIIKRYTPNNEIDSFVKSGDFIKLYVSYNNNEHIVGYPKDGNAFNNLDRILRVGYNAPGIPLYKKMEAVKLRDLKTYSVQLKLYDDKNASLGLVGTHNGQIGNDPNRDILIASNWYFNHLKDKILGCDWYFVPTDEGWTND
In words: ELISA, directly coated rTTC, unlabelled binder.

Test [20] concerns the target T1, tetanus neurotoxin (TeNT), authentic …. In words: competition ELISA on TeNT, binder biotinylated; competitor SVT13L.
For test [21] the target is unchanged. In words: GT1b-TeNT inhibition ELISA, EC at A450 0.59.
Test [22] addresses dog IgG (chrompure dog IgG) (dog).

Consider five molecules from patent US20240376185A1 (SMIVET B V, published 2024).

B1: SVT13L (VHH)
VHH: QVQLQESGGGLVQAGGSLRLSCAVSGTNFDDYAIGWFRQAPGKRREAVACISKTDGVTRYGNGVKGRFTISSDEARNTVFLQMNDLKDEDTAIYYCIGDFKSCGMGYKPIDHWGRGIQVTVSS
Consider B1, for which the “% inhibition of binding” value in test [1] turned out to be 5%; in [3], 0%; in test [4], 7%; in test [5] it was 2%; in test [6], 1%; in [7], 13%. Besides, the “% inhibition of binding” value in test [9] is 2%; in [10] it was 91%; in [11], 8%; in test [12] it was 1%; in [14], 92%; in [15], -19%. In addition, the “% inhibition of binding” value came to 91% in test [17] and 95% in test [20]. Moreover, the “EC resulting in A450 0.2” value in test [2] turned out to be 1.9 ng/mL; in [18], 1.3 ng/mL. For the same molecule, the “maximal absorbance at 450 nm” value in test [2] turned out to be 1.54; in [8] it was 0.487; in test [16], 1.48; in [18], 1.06; in test [19] it was 1.1. In addition, the “EC resulting in A450 0.15” value in [8] turned out to be 4.1 ng/mL. The “minimal absorbance at 450 nm” value in test [13] was 0.126. For the same molecule, the “EC resulting in A450 0.4” value in test [16] was 0.57 ng/mL. In addition, the “concentration giving A450 of 0.59” value in test [21] is 0.082 µg/mL.

B2: SVT34L (VHH)
VHH: QVQLQESGGGLVQPGGSLRLSCAASGRTISSYAMGWFRQAPGKQREFVAAISRSGGNTYYTDSVKGRFIISRDNAKNTLYLQMNNLKPEETAVYYCAADPNLMYESKWKYRALEAWGQGTLVTVSS
With B2, the “% inhibition of binding” value in [1] is 4%; in test [3] it was 13%; in test [4], 2%; in test [5] it was 2%; in [6], 0%; in [7] it was -4%. Further, the “% inhibition of binding” value in test [9] was 10%; in test [10] it was 93%; in test [11] it was 14%; in test [12], -2%; in test [14], 94%; in test [15] it was 3%. In addition, the “% inhibition of binding” value in test [17] is 95%; in [20] it was 93%. Also, the “EC resulting in A450 0.2” value in test [2] worked out at 1 ng/mL; in test [18] it was 3.5 ng/mL. Besides, the “maximal absorbance at 450 nm” value stood at 1.54 in [2]; 0.335 in test [8]; 1.29 in test [16]; 0.669 in test [18]; 0.886 in test [19]. Further, the “EC resulting in A450 0.15” value in [8] was 3.2 ng/mL. Also, the “minimal absorbance at 450 nm” value in [13] turned out to be 0.103. Also, the “EC resulting in A450 0.4” value in test [16] turned out to be 1.7 ng/mL. For the same molecule, the “concentration giving A450 of 0.59” value in test [21] is 0.046 µg/mL.

B3: SVT02-GS2-SVG06M4-H6 (bispecific antibody)
chain: QVQLQQSGGGSVQAGGSLRLSCVGPQRTFSTYGMGWFRQAPGKEREFVAGINYKGDTTYYADSVKGRFTISRDNAKNTLYLQMDSLKPEDRAVYQCARKGGLGGDYRDAGQYRYWGQGTQVTVSSGGGGSGGGSEVQLVESGGALVQPGGSLRLSCAASGFPFSAYDMTWVRQAPGQGLEWVSTIHKSGGITTYADSVKGRFTISRDNAKNTLYLQMNNLESEDTAVYYCAKALRAHNSDYVGRNALGSWGQGTQVTVSSHHHHHH
Regarding B3, the maximal absorbance value in test [22] is 0.06 A450.

B4: SVT15L (VHH)
VHH: QVQLQESGGGLVQTGGSLRLSCRASGRAFANYHFGWFRQAPGKDREFVASISWKGGSTYYANFALGRFTSSVDRAESSVYLQMSGLTPEDTATYYCAAHDGGDWNYHTGMDYWGKGILVTVSS
Consider B4, for which the “% inhibition of binding” value in test [1] was 7%; in test [3], 4%; in test [4] it was 6%; in test [5] it was 0%; in test [6], -5%; in [7], 15%. Besides, the “% inhibition of binding” value in [9] is 6%; in test [10] it was 5%; in test [11], 96%; in test [12], 1%; in test [14] it was 2%; in test [15] it was 96%. The “% inhibition of binding” value in test [17] was 10%; in [20] it was 2%. Moreover, the “EC resulting in A450 0.2” value was 2.8 ng/mL in test [2] and 5.7 ng/mL in test [18]. The “maximal absorbance at 450 nm” value in test [2] was found to be 1.34; in test [8], 0.477; in test [16], 1.4; in test [18], 0.825; in test [19], 0.528. Further, in [8], the “EC resulting in A450 0.15” value is 5.7 ng/mL. Also, in test [13], the “minimal absorbance at 450 nm” value stood at 0.14. Also, the “EC resulting in A450 0.4” value in test [16] is 2.8 ng/mL. Also, in test [21], the “concentration giving A450 of 0.59” value turned out to be 0.072 µg/mL.

B5: SVT22L (VHH)
VHH: QVQLQESGGGLVQAGESLRLSCTASGISFDDYAIGWFRQAPGQQRKGVACISKADGRTDYLGSVKGRFTLSTDNTKNTVHLQMNNLKPEDTALYTCAAEYKSCGMGYKPIDYWGQGMQVTVSS
For B5, the “% inhibition of binding” value in test [1] came to 0%; in test [3], 10%; in test [4] it was 4%; in [5], 3%; in test [6], 5%; in [7], 1%. The “% inhibition of binding” value in test [9] was 8%; in test [10], 92%; in [11] it was 11%; in test [12] it was 6%; in test [14] it was 94%; in test [15] it was 2%. The “% inhibition of binding” value in test [17] was 93%; in [20] it was 95%. The “EC resulting in A450 0.2” value came to 2 ng/mL in test [2] and 2.6 ng/mL in [18]. Also, the “maximal absorbance at 450 nm” value in test [2] came out at 1.59; in [8], 0.318; in test [16], 1.34; in test [18] it was 0.799; in [19] it was 0.981. Moreover, in [8], the “EC resulting in A450 0.15” value was 5.4 ng/mL. Besides, the “minimal absorbance at 450 nm” value in [13] worked out at 0.107. For the same molecule, the “EC resulting in A450 0.4” value in test [16] came out at 1.3 ng/mL. Besides, the “concentration giving A450 of 0.59” value in test [21] turned out to be 0.105 µg/mL.
